Molecular target: T1, peptide SAVLQMGFRK, Substrate (7)
T1 chain: SAVLQMGFRK

B1: wild-type severe acute respiratory syndrome-associated coronavirus 3C-like protease (SARS-CoV 3CL^pro) (protein)
chain: SGFRKMAFPSGKVEGCMVQVTCGTTTLNGLWLDDTVYCPRHVICTAEDMLNPNYEDLLIRKSNHSFLVQAGNVQLRVIGHSMQNCLLRLKVDTSNPKTPKYKFVRIQPGQTFSVLACYNGSPSGVYQCAMRPNHTIKGSFLNGSCGSVGFNIDYDCVSFCYMHHMELPTGVHAGTDLEGKFYGPFVDRQTAQAAGTDTTITLNVLAWLYAAVINGDRWFLNRFTTTLNDFNLVAMKYNYEPLTQDHVDILGPLSAQTGIAVLDMCAALKELLQNGMNGRTILGSTILEDEFTPFDVVRQCSGVTFQ
Km: Km is 76.6±3.5 µM
kcat: kcat is 1.6±0.2 min^-1
kcat/Km: kcat/Km=0.02 µM^-1min^-1

From US20100203582
